Data on one substance can be found in patent US20100255578A1.

One assay concerns the target H296-H296-HT. As to the kind of experiment: ELISA; H296-H296-HT coated at 3 ug/mL; HRP-labeled FNH3-8, ABTS; blank subtracted. On the technique in general: ELISA stands for enzyme-linked immunosorbent assay.
A further assay concerns the target H296-H271. Kind of assay: ELISA; H296-H271 coated at 11 ug/mL; HRP-labeled FNH3-8, ABTS; blank subtracted.
The next assay concerns the target H296-H296-H296-HT. As to the kind of experiment: ELISA; H296-H296-H296-HT coated at 1 ug/mL; HRP-labeled FNH3-8, ABTS; blank subtracted.

H296-H296-H296-HT, sequence (chain, as listed by the source limits assumed): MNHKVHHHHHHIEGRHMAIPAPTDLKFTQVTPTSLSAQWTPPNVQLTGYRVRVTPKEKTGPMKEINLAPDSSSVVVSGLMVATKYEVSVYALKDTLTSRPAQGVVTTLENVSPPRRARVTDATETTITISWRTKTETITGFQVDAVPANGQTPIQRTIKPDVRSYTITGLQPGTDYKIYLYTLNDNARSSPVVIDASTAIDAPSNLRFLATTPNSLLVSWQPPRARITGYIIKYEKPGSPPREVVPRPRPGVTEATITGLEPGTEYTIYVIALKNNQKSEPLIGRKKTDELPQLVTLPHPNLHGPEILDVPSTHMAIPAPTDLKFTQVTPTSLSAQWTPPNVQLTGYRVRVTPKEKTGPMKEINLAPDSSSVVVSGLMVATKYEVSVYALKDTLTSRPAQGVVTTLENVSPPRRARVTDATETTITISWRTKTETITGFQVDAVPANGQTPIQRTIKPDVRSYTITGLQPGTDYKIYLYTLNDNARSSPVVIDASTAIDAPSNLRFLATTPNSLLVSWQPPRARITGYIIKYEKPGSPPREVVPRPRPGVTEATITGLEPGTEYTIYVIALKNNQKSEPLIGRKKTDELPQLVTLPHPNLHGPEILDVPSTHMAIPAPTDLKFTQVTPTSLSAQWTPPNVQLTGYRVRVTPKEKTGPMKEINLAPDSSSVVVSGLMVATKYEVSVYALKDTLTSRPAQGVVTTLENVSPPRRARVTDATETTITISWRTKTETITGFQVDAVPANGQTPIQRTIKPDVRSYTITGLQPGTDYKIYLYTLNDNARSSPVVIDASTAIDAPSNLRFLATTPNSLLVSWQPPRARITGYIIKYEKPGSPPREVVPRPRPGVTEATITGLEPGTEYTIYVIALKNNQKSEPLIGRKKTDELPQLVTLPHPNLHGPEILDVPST
H296-H296-HT, sequence (chain, as listed by the source limits assumed): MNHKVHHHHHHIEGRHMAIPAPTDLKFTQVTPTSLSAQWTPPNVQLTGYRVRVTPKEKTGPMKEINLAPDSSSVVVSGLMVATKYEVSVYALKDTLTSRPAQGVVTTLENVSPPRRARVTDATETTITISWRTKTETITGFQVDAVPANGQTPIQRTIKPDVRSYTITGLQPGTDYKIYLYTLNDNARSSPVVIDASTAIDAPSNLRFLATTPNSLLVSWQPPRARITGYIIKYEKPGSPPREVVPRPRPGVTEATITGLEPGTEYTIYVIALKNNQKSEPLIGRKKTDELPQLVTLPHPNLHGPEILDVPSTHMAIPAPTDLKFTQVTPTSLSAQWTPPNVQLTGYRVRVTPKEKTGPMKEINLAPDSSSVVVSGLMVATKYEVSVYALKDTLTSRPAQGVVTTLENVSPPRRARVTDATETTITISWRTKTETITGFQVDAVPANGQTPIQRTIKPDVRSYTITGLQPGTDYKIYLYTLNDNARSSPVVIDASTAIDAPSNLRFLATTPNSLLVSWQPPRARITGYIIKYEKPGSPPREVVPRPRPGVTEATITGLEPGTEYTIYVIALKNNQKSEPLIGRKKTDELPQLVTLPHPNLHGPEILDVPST
H296-H271, sequence (chain, as listed by the source limits assumed): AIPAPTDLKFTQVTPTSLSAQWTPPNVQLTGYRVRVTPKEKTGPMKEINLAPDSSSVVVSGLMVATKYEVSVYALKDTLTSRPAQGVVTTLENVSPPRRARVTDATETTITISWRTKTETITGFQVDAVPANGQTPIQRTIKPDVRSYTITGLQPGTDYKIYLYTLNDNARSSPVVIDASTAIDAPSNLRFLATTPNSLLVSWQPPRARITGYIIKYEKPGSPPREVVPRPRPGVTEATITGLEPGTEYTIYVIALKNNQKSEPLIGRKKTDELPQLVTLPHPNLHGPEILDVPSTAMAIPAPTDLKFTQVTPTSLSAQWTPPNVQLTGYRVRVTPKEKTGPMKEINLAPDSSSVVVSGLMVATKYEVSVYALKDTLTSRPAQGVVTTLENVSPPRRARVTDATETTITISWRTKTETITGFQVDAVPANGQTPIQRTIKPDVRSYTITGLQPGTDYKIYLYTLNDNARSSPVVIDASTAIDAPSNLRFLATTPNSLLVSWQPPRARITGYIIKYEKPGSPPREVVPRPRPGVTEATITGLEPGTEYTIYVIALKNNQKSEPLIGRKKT

As for “FNH3-8 antibody (manufactured by TAKARA BIO INC.) labeled with HRP”, the results for the 405 nm (Found Value - Blank) with H296-H296-HT, in the assay with H296-H271 and with H296-H296-H296-HT were 0.742, 0.561 and 0.261, respectively.
